Experimental data published in patent US8461305B2, “L-fucose α1→6 specific lectin” (J-Oil Mills, Inc., priority 2008, dated 2013).

Tests used:
Type in all cases: binding
[1] = target: Lactoferrin (human) (Homo sapiens, UniProt P02788); test: detection of glycoproteins by ELISA with biotin-labeled lectin; conditions: (2) Lactoferrin (human), N-linked glycan chain having α1→6 L-fucose; thyroglobulin value = 100%
[2] = target: T1, α-fetoprotein-L3 (Homo sapiens, UniProt P02771); test: detection of tumor marker sugar chain by ELISA; conditions: α-fetoprotein-L3 from culture supernatant of human liver cancer cells, coated at 0.01 μg/ml
T1 construct: prepared from the culture supernatant of human liver cancer cells; endogenous in cells
T1 sequence (P02771 19-609): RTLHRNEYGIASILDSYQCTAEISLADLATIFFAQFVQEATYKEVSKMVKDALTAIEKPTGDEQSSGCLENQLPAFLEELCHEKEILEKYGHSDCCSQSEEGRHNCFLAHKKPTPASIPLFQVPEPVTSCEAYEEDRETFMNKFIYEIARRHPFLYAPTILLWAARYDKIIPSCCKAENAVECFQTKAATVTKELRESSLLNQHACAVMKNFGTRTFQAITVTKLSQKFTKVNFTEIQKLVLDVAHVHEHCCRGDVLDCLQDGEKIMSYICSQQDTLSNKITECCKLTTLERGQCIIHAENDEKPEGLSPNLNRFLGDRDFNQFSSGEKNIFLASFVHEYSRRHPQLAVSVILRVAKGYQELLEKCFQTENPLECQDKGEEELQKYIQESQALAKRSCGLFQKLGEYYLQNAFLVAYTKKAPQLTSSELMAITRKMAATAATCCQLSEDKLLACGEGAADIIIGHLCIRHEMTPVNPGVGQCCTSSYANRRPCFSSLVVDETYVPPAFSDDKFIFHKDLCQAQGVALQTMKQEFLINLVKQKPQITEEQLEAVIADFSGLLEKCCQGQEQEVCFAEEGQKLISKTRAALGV
Source text: (§1) α-fetoprotein (hereinafter referred to as “AFP”) is a glycoprotein included in a blood serum having an N-linked sugar chain. Substantially no AFP exists in the blood serum of a healthy adult. On the other hand, the blood serum of a patient having a benign liver disease has an increased α-fetoprotein L1-type sugar chain (AFP-L1). Furthermore, α-fetoprotein L3-type sugar chain (AFP-L3) is detected in a patient of a liver cancer. Conventionally, the difference in a sugar chain has been measured by LCA and the measurement result has been used for the diagnosis of a liver disease.
(§2) PTL of Example 1, SRL of Example 2, AAL of Comparison Example 1, AOL of Comparison Example 2, and the LCA of Comparison Example 3 that were biotin-labeled were used to evaluate the binding property of α-fetoprotein by ELISA.
(§3) 0.1 M carbonic acid buffer solution (pH 9.5) was used to dilute α-fetoprotein (derived from human umbilical cord blood serum, mainly L1-type sugar chain) and α-fetoprotein-L3 (prepared from the culture supernatant of human liver cancer cells) so as to achieve 0.01 μg/ml. Then, the resultant solution was added to a microtiter plate (Nunc) and was incubated at 4 degrees C. one night. After the solution was cleaned by 0.05% Tween/PBS three times, 1% BSA/PBS was added to wells and the solution was incubated at 37 degrees C. for one hour. After the solution was washed by 0.05% Tween/PBS three times, the wells were added with the biotin-labeled lectin solution appropriately diluted by 1% BSA/0.05% Tween/PBS and the solution was incubated at 37 degrees C. for one hour. After the solution was cleaned by 0.05% Tween/PBS three times, HRP labeled streptavidin solution diluted by 1% BSA/0.05% Tween/PBS was added and the solution was incubated at 37 degrees C. for 30 minutes. After the solution was cleaned by 0.05% Tween/PBS three times, TMB Peroxidase substrate system (KPL) was added and the resultant solution was incubated at a room temperature for 10 minutes while light was being blocked. The reaction was stopped by 1 M phosphoric acid. Then, a microplate reader (MPR-A4i, TOSOH CORPORATION) was used to measure the absorbance at 450 nm.
(§4) The absorbance at 450 nm of the plate on which α-fetoprotein and α-fetoprotein-L3 were caused to react with lectin was measured. Based on this value, the reaction value ([absorbance at 450 nm of a well for which glycoprotein was solid-phased to the plate and reacted]−[absorbance at 450 nm of a well for which glycoprotein was not solid-phased to the plate and reacted]) was calculated. Next, for each lectin, the interaction was calculated. Next, the calculation result of the reaction values is shown in Table 10 and FIG. 24 to FIG. 28.

[3] = target: T2, α-fetoprotein (mainly L1-type sugar chain) (Homo sapiens, UniProt P02771); test: detection of tumor marker sugar chain by ELISA; conditions: α-fetoprotein from human umbilical cord blood serum, coated at 0.01 μg/ml
T2 construct: derived from human umbilical cord blood serum; from tissue; host or cells: human umbilical cord blood serum
T2 sequence (P02771 19-609): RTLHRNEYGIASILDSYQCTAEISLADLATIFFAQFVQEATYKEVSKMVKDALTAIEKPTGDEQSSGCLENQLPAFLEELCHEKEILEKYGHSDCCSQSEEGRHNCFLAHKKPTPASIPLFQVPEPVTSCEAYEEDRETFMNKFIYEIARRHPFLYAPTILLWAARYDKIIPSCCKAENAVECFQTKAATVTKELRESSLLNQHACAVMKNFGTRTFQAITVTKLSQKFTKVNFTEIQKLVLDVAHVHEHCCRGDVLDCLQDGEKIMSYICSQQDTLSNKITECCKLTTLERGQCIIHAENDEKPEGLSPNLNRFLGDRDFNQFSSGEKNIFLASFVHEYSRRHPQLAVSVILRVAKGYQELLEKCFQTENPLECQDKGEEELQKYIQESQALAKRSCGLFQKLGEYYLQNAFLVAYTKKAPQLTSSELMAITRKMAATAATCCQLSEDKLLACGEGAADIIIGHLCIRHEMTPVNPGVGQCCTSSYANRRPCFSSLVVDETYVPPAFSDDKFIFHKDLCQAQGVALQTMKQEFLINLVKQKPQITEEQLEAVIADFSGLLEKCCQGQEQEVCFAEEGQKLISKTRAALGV
Source text: as §1, §2, §3, §4

Sequence of Lactoferrin (human) (P02788 20-710): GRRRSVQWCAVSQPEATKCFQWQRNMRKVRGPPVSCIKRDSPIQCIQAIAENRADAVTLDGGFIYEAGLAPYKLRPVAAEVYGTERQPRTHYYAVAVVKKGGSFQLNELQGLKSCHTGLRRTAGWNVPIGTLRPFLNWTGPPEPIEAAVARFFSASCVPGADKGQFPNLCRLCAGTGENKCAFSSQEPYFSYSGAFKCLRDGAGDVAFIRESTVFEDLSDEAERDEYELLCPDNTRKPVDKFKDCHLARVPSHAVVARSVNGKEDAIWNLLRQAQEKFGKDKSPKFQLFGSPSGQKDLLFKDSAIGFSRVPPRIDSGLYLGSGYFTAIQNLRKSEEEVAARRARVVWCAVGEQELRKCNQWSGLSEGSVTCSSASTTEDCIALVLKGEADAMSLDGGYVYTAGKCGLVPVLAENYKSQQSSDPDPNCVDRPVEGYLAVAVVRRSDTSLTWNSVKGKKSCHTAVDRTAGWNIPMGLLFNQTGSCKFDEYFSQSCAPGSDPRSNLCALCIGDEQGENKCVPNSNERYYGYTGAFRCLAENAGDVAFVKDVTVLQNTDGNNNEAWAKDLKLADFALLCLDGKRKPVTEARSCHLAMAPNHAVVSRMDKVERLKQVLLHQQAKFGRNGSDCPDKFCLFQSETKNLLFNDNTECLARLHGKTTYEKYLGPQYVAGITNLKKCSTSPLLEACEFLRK

Row | Molecule | interaction strength (relative value) by ELISA [1] | reaction value (absorbance at 450 nm, blank-subtracted) by ELISA [2] | reaction value (absorbance at 450 nm, blank-subtracted) by ELISA [3]
1 | Stropharia rugosoannulata lectin [SRL, novel L-fucose α1→6 specific lectin purified from the mushroom Stropharia rugosoannulata] | ◯ (Relative values of 80 to 50) | 1.625 | 0.031
2 | Aspergillus oryzae lectin [AOL, reference compound] | ◯ (Relative values of 80 to 50) | 0.898 | 0.011
3 | Pholiota terrestris lectin [PTL, novel L-fucose α1→6 specific lectin purified from the mushroom Pholiota terrestris] | ⊚ (Relative values of 120 to 80) | 1.548 | 0.039
4 | Lens culinaris agglutinin (protein) chain 1: TETTSFSITKFSPDQKNLIFQGDGYTTKGKLTLTKAVKSTVGRALYSTPIHIWDRDTGNVANFVTSFTFVIDAPSSYNVADEFTFFIAPVDTKPQTGGGYLGVFNSKEYDKTSQTVAVEFDTFYNAAWDPSNKERHIGIDVNSIKSVNTKSWNLQNGERANVVIAFNAATNVLTVTLTYP chain 2: VTSYTLNEVVPLKDVVPEWVRIGFSATTGAEFAAHEVHSWSFHSELGGTSSS | ◯ (Relative values of 80 to 50) | 0.455 | 0.010
5 | Aleuria aurantia lectin (protein) PTEFLYTSKIAAISWAATGGRQQRVYFQDLNGKIREAQRGGDNPWTGGSSQNVIGEAKLFSPLAAVTWKSAQGIQIRVYCVNKDNILSEFVYDGSKWITGQLGSVGVKVGSNSKLAALQWGGSESAPPNIRVYYQKSNGSGSSIHEYVWSGKWTAGASFGSTVPGTGIGATAIGPGRLRIYYQATDNKIREHCWDSNSWYVGGFSASASAGVSIAAISWGSTPNIRVYWQKGREELYEAAYGGSWNTPGQIKDASRPTPSLPDTFIAANSSGNIDISVFFQASGVSLQQWQWISGKGWSIGAVVPTGTPAGW | ◯ (Relative values of 80 to 50) | 0.795 | −0.049
